Test results: US20220169728A1 (AB THERAPEUTICS, published 2022)
Changes are numbered by the printed parent chain. Numbers in names are those of the source.

B1: CD20/CD3 BsMab with common VL (SEQ ID NO: 3) N93P (bispecific antibody, V domains shown)
VH 1: QVQLQQPGAELVKPGASVKMSCKASGYTFTSYNMHWVKQTPGRGLEWIGAIYPGNGDTSYNQKFKGKATLTADKSSSTAYMQLSSLRSEDSAVYYCARSTYYGGDWYFNVWGAGTTVTVSA
VH 2: EVQLQESGAELARPGASVKMSCKASGYTFTSYTMHWVKQRPGEGLEWIGYINPSSGYTKYNQKFKDKATLTADKSSSTAYMELSSLTSEDSAVYYCARWQDYDVYFDYWGEGTTLTVSS
VL: QIVLSQSPAILSASPGEKVTMTCRASSSVSYIHWFQQKPGSSPKPWIYATSNLASGVPVRFSGSGSGTSYSLTISRVEAEDAATYYCQQWTSPPPTFGGGTKLEIKR
B2: CD20/CD3 BsMab with common VL (SEQ ID NO: 3) P95A (bispecific antibody, V domains shown)
VH 1: B1 VH 1
VH 2: B1 VH 2
VL: B1 VL with P93N, P95A
B3: CD20/CD3 BsMab with common VL (SEQ ID NO: 3) N93G (bispecific antibody, V domains shown)
VH 1: B1 VH 1
VH 2: B1 VH 2
VL: B1 VL with P93G
B4: CD20/CD3 BsMab with common VL (SEQ ID NO: 3) N93F (bispecific antibody, V domains shown)
VH 1: B1 VH 1
VH 2: B1 VH 2
VL: B1 VL with P93F
B5: CD20/CD3 BsMab with common VL (SEQ ID NO: 3) N93Y (bispecific antibody, V domains shown)
VH 1: B1 VH 1
VH 2: B1 VH 2
VL: B1 VL with P93Y
B6: CD20/CD3 BsMab with common VL (SEQ ID NO: 3) P95V (bispecific antibody, V domains shown)
VH 1: B1 VH 1
VH 2: B1 VH 2
VL: B1 VL with P93N, P95V
B7: CD20/CD3 BsMab with common VL (SEQ ID NO: 3) N93V (bispecific antibody, V domains shown)
VH 1: B1 VH 1
VH 2: B1 VH 2
VL: B1 VL with P93V
B8: CD20/CD3 BsMab with common VL (SEQ ID NO: 3) N93T (bispecific antibody, V domains shown)
VH 1: B1 VH 1
VH 2: B1 VH 2
VL: B1 VL with P93T
B9: CD20/CD3 BsMab with common VL (SEQ ID NO: 3) N93Q (bispecific antibody, V domains shown)
VH 1: B1 VH 1
VH 2: B1 VH 2
VL: B1 VL with P93Q
B10: CD20/CD3 BsMab with common VL (SEQ ID NO: 3) N93A (bispecific antibody, V domains shown)
VH 1: B1 VH 1
VH 2: B1 VH 2
VL: B1 VL with P93A

target: CD3 (Homo sapiens (Human), UniProt P07766 23-207; P04234 22-171; P09693 23-182); assay: cell-based or functional assay
Sequence (P07766 23-207 limits assumed, chain 1 of 3): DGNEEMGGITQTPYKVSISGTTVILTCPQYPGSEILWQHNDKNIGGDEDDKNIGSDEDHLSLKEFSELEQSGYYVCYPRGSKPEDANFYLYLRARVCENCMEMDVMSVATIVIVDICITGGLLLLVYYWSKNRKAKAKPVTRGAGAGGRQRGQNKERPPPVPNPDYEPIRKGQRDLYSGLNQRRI
Sequence (P04234 22-171 limits assumed, chain 2 of 3): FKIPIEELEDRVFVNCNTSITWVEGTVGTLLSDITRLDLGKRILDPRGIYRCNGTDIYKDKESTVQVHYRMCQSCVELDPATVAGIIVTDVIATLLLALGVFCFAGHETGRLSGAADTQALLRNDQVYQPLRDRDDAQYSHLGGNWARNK
Sequence (P09693 23-182 limits assumed, chain 3 of 3): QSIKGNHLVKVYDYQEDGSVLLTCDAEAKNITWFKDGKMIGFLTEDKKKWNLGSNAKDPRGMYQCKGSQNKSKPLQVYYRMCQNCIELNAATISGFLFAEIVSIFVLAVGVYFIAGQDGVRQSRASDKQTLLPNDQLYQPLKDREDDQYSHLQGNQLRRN

Row | Function % 0.025 ug/ml (T cell activation, CD69 on Jurkat cells with Raji cells, against the unmutated baseline) [%] | Function % 2 ug/ml (T cell activation, CD69 on Jurkat cells with Raji cells, against the unmutated baseline) [%] | Binder
1 | 9 | 51 | B1
2 | 19 | 92 | B2
3 | 15 | 21 | B3
4 | 11 | 70 | B4
5 | 12 | 22 | B5
6 | 96 | 97 | B6
7 | 33 | 95 | B7
8 | 21 | 98 | B8
9 | 10 | 62 | B9
10 | 12 | 80 | B10
